This is an account of results in paper PMC11024197 (2024).

The test has as its target T1, PEX14 NTD (1-104) (human, UniProt O75381 1-104).
T1 chain: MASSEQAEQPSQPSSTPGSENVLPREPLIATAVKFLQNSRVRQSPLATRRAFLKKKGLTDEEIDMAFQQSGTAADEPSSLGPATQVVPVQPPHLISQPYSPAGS
The experiment in a line: ITC. On the technique in general: Isothermal titration calorimetry measures the heat released or taken up as one component is titrated into another.

B1: PEX5 W5 peptide (peptide)
peptide: AQAEQWAAEFIQQQG
What is called Kd is the equilibrium constant for the complex coming apart. A low value points to higher affinity. For B1, binding was put at a Kd of 21 nM.

B2: PEX5 W1 peptide (peptide)
peptide: ALSENWAQEFLAAGD
The molecule B2 displayed a dissociation constant Kd of 72 nM.
